Patent publication US10000771B2, “Nuclear targeting sequences” (Yeda Research and Development Co. Ltd., priority 2007, dated 2018)

What was measured:
CHO cells = experiment: Fluorescence microscopy of ERK2 constructs (subcellular localization); type: cell-based; conditions: overexpressed in CHO (and COS7) cells, serum-starved, fluorescent microscope
Protocol: FIGS. 1A-1R are photomicrographs illustrating the role of SPS in the non-regulated accumulation of ERK2 in the nucleus. CHO (FIGS. 1A-F and 1M-R) or COS7 cells (FIGS. 1G-L) were grown on cover slips and transfected with WT-ERK2, or the mutants 244-6A and Δ244-6. Twenty-four hr following transfection, the cells were serum-starved (16 hr), fixed, stained with DAPI and visualized using a fluorescent microscope.
FIGS. 2A-2X are photomicrographs illustrating the role of SPS in the stimulated nuclear translocation of ERK2. CHO cells were grown on cover slips and co-transfected with HA-MEK1 together with either WT-ERK2, 244-6A, or Δ244-6. Twenty-four hr after transfection, the cells were serum starved for 16 hours, treated with TPA (250 nM, 15 min), except in WT-10 where the cells were treated with 10 nM TPA for 15 min. After treatments the cells were fixed and stained with either anti-HA Ab or DAPI.
FIGS. 5A-5F are photomicrographs illustrating that mutating the Ser residues in the SPS to Glu induces the nuclear accumulation of ERK2. CHO cells were grown on cover slips and transfected with WT-GFP-ERK2 (WT), APA-GFP-ERK2 (APA), or EPE-GFP-ERK2 (EPE). Twenty-four hr after transfection, the cells were serum-starved, fixed, stained with DAPI and visualized by a fluorescent microscope.
FIGS. 7A-7H are photomicrographs illustrating that EPE-ERKs translocates to the nucleus faster than WT-ERK. CHO cells were transfected with WT-GFP-ERK2 (WT) and EPE-GFP-ERK2 (EPE). Eight (FIGS. 7A-D) or twelve (FIGS. 7E-H) hours after transfection the cells were fixed, stained with DAPI and visualized by a fluorescent microscope.
Immunofluorescence Microscopy. Cells were fixed (30 min in 3% paraformaldehyde in PBS or 10 min with ice-cold methanol), followed by 5-min permeabilization with 0.2% Triton X-100 in PBS (23° C.). The fixed cells were sequentially incubated with the appropriate Abs (45 min) followed by rhodamine-conjugated secondary Abs (45 min) and DAPI. Slides were visualized using a fluorescence microscope (Nikon, Japan) at 400× magnifications. […]

Nup153c = experiment: Interaction with recombinant His-Nup153c; type: binding; conditions: immunoprecipitated ERK2 incubated with 0.5 μg recombinant His-Nup153c
Protocol: FIGS. 19A-19C are autoradiographs illustrating that phospho-SPS interacts with importin-7 and releases Nup153c binding without involvment of importin-β. […]. Interaction of ERK2 with Importin-7 is enhanced by EGF stimulation and EPE mutation. HeLa cells overexpressing WT-ERK (WT), ERK-APA (APA), ERK-EPE (EPE) or GFP were serum starved and treated with EGF (50 ng/ml, 10 min). The extracts of the treated cells were then subjected to coimmunoprecipitation using A/G beads pre-conjugated with anti GFP Ab and mild washes. The coimmunoprecipitated importin-7 (first panel) and importin-β (third panel), as well as their loading amounts (panels 2 and 4 respectively) were determined by WB using anti importin-7 (αImp7) and importin-β (αImpβ) Abs. The equal amount of immunoprecipitated ERKs was determined with anti GFP (αGFP; IP) Ab. FIG. 19B. Interaction of 2GFP-SPS and its mutants with importin-7. HeLa cells overexpressing 2GFP, 2GFP-SPS, 2GFP-APA and 2GFP-EPE constructs were subjected to coimmunoprecipitation as described in FIG. 19A (without EGF stimulation). FIG. 19C. Interaction of NUP153 with WTERK2 and its APA and EPE mutants. NUP153c is elevated in APA-ERK2, but reduced in EPE-ERK2. Immunoprecipitated and stringently washed WT-ERK2 (WT), APA-ERK2 (APA) or ERK2 from […] cells pre-treated with or without TPA (250 nM, 15 min) were incubated with 0.5 μg recombinant His-Nup153c. […]

B1: APA-ERK2: GFP-ERK2 with the two Ser residues of the SPS sequence replaced by Ala (protein)
chain: MAAAAAAGPEMVRGQVFDVGPRYTNLSYIGEGAYGMVCSAYDNLNKVRVAIKKISPFEHQTYCQRTLREIKILLRFRHENIIGINDIIRAPTIEQMKDVYIVQDLMETDLYKLLKTQHLSNDHICYFLYQILRGLKYIHSANVLHRDLKPSNLLLNTTCDLKICDFGLARVADPDHDHTGFLTEYVATRWYRAPEIMLNSKGYTKSIDIWSVGCILAEMLSNRPIFPGKHYLDQLNHILGILGAPAQEDLNCIINLKARNYLLSLPHKNKVPWNRLFPNADSKALDLLDKMLTFNPHKRIEVEQALAHPYLEQYYDPSDEPIAEAPFKFDMELDDLPKEKLKELIFEETARFQPGYRS
modifications: left off: large carriers
**Q.** How did the “subcellular localization in quiescent cells” value (CHO cells) turn out when B1 was run?
**A.** cytoplasmic distribution

**Q.** And the “interaction with Nup153” value (Nup153c)?
**A.** increased
